What is called Kd is the equilibrium constant for the complex coming apart.

Data on 25 substances can be found in patent publication US20140212436A1.

What all share (assay): Biacore
One assay addresses FcγRIIaR (human) (UniProt P12318).
The target in a further assay is human FcγRI (human) (UniProt P12314).
The target in assay [1] is human H131 FcγRIIa (human) (UniProt P12318).
Assay [2] has as its target human V158 FcγRIIIa (human) (UniProt P08637).
For assay [3], the target named is recombinant human FcγRIIb protein (human) (UniProt P31994).
recombinant human FcγRIIb protein (human), sequence (P31994 46-217 limits assumed): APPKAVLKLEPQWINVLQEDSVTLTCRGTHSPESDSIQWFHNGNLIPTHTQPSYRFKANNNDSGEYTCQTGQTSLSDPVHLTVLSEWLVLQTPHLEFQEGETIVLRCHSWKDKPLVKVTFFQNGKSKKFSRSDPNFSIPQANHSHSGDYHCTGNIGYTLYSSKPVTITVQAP

FcγRIIaR (human), sequence (P12318 34-217 H167R limits assumed): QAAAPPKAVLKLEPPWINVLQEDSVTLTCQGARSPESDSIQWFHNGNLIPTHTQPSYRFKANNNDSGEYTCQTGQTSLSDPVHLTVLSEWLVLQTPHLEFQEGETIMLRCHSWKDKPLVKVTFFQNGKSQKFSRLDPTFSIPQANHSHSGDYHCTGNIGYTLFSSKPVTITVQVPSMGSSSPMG
human FcγRI (human), sequence (P12314 16-288 limits assumed): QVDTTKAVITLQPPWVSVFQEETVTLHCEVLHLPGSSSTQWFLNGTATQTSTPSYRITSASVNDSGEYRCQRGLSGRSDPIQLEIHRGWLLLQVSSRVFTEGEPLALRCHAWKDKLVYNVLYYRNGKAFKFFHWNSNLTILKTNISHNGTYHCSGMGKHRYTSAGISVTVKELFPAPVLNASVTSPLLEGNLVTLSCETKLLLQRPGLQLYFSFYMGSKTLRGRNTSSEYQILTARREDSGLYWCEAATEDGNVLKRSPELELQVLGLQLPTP
human V158 FcγRIIIa (human), sequence (P08637 other isoform, or with tags, fused parts or gaps limits assumed): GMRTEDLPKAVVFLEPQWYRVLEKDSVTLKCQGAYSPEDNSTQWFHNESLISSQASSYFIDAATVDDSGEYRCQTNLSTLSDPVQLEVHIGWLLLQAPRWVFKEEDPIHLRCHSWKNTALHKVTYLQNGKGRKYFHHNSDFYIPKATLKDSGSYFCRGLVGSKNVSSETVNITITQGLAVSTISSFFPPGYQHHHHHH
human H131 FcγRIIa (human), sequence (P12318 other isoform, or with tags, fused parts or gaps limits assumed): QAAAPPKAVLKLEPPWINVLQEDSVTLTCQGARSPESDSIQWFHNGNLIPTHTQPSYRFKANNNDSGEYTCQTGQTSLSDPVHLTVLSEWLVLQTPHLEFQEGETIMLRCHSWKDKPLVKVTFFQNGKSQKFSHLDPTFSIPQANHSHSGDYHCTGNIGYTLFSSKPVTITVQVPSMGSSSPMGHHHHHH

With S267A (antibody), the Fold with FcγRIIaR (human) was determined as 4.29; with human FcγRI (human), 1.15; in assay [1], 1.22; in assay [2], 0.952. Also, the Kd with FcγRIIaR (human) stood at 200 nM; in the assay with human FcγRI (human), 0.287 nM; in assay [1] it was 530 nM; in assay [2], 201 nM; in assay [3], 408 nM.
Regarding L235Y/S239D/S267E (antibody), the Fold in the assay with FcγRIIaR (human) is 98.9; with human FcγRI (human) it was 1.07; in assay [1] it was 1.05; in assay [2], 2.6; in assay [3] it was 116. Moreover, the equilibrium dissociation constant (Kd) was determined as 8.68 nM with FcγRIIaR (human); 0.307 nM in the assay with human FcγRI (human); 617 nM in assay [1]; 73.5 nM in assay [2]; 12.6 nM in assay [3].
Take L234F/S267E (antibody): the Fold came out at 20.7 with FcγRIIaR (human); 0.661 in the assay with human FcγRI (human); 0.509 in assay [1]; 0.0938 in assay [2]; 26.4 in assay [3]. The equilibrium dissociation constant (Kd) with FcγRIIaR (human) is 41.6 nM; with human FcγRI (human), 0.498 nM; in assay [1], 1270 nM; in assay [2] it was 2040 nM; in assay [3], 55.7 nM.
With A327D (antibody), the Fold with FcγRIIaR (human) stood at 1.6; in the assay with human FcγRI (human), 2.06; in assay [1], 0.733; in assay [2], 0.398; in assay [3], 1.33. For the same substance, the equilibrium dissociation constant (Kd) with FcγRIIaR (human) was determined as 536 nM; with human FcγRI (human), 0.16 nM; in assay [1], 882 nM; in assay [2] it was 481 nM; in assay [3] it was 1100 nM.
Consider S267E/A327D (antibody), for which the Fold with FcγRIIaR (human) came to 16.7; with human FcγRI (human) it was 1.66; in assay [2] it was 0.00199; in assay [3], 21.2. The dissociation constant Kd with FcγRIIaR (human) was 51.3 nM; in the assay with human FcγRI (human), 0.198 nM; in assay [2], 96300 nM; in assay [3], 69.1 nM.
Regarding H268E (antibody), the Fold with FcγRIIaR (human) is 3.19; in the assay with human FcγRI (human), 2.74; in assay [1] it was 1.43; in assay [2], 2.19; in assay [3], 2.62. The equilibrium dissociation constant (Kd) came out at 269 nM with FcγRIIaR (human); 0.12 nM with human FcγRI (human); 453 nM in assay [1]; 87.5 nM in assay [2]; 560 nM in assay [3].
Take L235A (antibody): the Fold in the assay with FcγRIIaR (human) amounted to 0.166; with human FcγRI (human) it was 0.0179; in assay [1], 0.0486; in assay [2] it was 0.314; in assay [3], 0.351. Further, the dissociation constant (Kd) in the assay with FcγRIIaR (human) came to 5180 nM; with human FcγRI (human), 18.4 nM; in assay [1], 13300 nM; in assay [2], 609 nM; in assay [3], 4180 nM.
Regarding S267E/H268E/L328F (antibody), the Fold in the assay with FcγRIIaR (human) turned out to be 253; with human FcγRI (human), 0.991; in assay [1] it was 0.826; in assay [2], 0.092; in assay [3] it was 344. The Kd in the assay with FcγRIIaR (human) came out at 3.4 nM; with human FcγRI (human), 0.333 nM; in assay [1] it was 783 nM; in assay [2], 2080 nM; in assay [3], 4.26 nM.
L234D/S267E (antibody): the Fold with FcγRIIaR (human) came to 12.7; with human FcγRI (human) it was 0.0286; in assay [2], 0.14; in assay [3] it was 21.7. Besides, the Kd in the assay with FcγRIIaR (human) is 67.7 nM; with human FcγRI (human) it was 11.5 nM; in assay [2], 1370 nM; in assay [3], 67.8 nM.
Consider S267E/A327E (antibody), for which the Fold turned out to be 29.3 with FcγRIIaR (human); 2.3 in the assay with human FcγRI (human); 2.66 in assay [1]; 0.00894 in assay [2]; 30.9 in assay [3]. Further, the equilibrium dissociation constant (Kd) with FcγRIIaR (human) was 29.3 nM; with human FcγRI (human), 0.143 nM; in assay [1] it was 243 nM; in assay [2] it was 21400 nM; in assay [3], 47.5 nM.
Consider V266M (antibody), for which the Fold with FcγRIIaR (human) was determined as 3.13; with human FcγRI (human), 1.25; in assay [1] it was 1.17; in assay [2] it was 0.547; in assay [3] it was 1.91. Also, the Kd stood at 274 nM with FcγRIIaR (human); 0.264 nM in the assay with human FcγRI (human); 553 nM in assay [1]; 350 nM in assay [2]; 770 nM in assay [3].
V266M/S267E (antibody): the Fold with FcγRIIaR (human) was found to be 30.7; with human FcγRI (human), 1.98; in assay [1], 10.9; in assay [2], 0.0448; in assay [3] it was 29.2. Moreover, the dissociation constant Kd in the assay with FcγRIIaR (human) is 28 nM; with human FcγRI (human), 0.166 nM; in assay [1] it was 59.2 nM; in assay [2], 4270 nM; in assay [3] it was 50.2 nM.
For L234E/S267E/L328F (antibody), the Fold in the assay with FcγRIIaR (human) came to 174; with human FcγRI (human) it was 0.0425; in assay [1], 0.0725; in assay [3], 195. The dissociation constant Kd came out at 4.93 nM in the assay with FcγRIIaR (human), 7.75 nM in the assay with human FcγRI (human), 8920 nM in assay [1] and 7.53 nM in assay [3].
L235I (antibody): the Fold with FcγRIIaR (human) came to 0.666; with human FcγRI (human) it was 0.0197; in assay [1], 0.181; in assay [2] it was 0.903; in assay [3], 0.908. The dissociation constant Kd was found to be 1290 nM with FcγRIIaR (human); 16.7 nM in the assay with human FcγRI (human); 3580 nM in assay [1]; 212 nM in assay [2]; 1620 nM in assay [3].
Consider G236D/S267E/H268E (antibody), for which the Fold with FcγRIIaR (human) came out at 29.9; in the assay with human FcγRI (human), 0.0902; in assay [1], 0.103; in assay [3] it was 110. For the same substance, the Kd with FcγRIIaR (human) was 28.7 nM; in the assay with human FcγRI (human), 3.65 nM; in assay [1] it was 6300 nM; in assay [3], 13.4 nM.
For S239D/S267E/L328F (antibody), the Fold with FcγRIIaR (human) was 416; in the assay with human FcγRI (human), 1.45; in assay [1] it was 1.71; in assay [2], 0.216; in assay [3], 428. Also, the Kd in the assay with FcγRIIaR (human) amounted to 2.06 nM; with human FcγRI (human), 0.227 nM; in assay [1], 378 nM; in assay [2] it was 887 nM; in assay [3] it was 3.43 nM.
On to G236D (antibody), for which the Fold with FcγRIIaR (human) was 0.758; in the assay with human FcγRI (human) it was 0.0211; in assay [1] it was 0.167; in assay [3], 1.54. The Kd in the assay with FcγRIIaR (human) is 1130 nM; with human FcγRI (human), 15.6 nM; in assay [1] it was 3870 nM; in assay [3] it was 953 nM.
For G236S (antibody), the Fold was found to be 2.33 with FcγRIIaR (human); 0.0268 with human FcγRI (human); 3.76 in assay [1]; 0.00367 in assay [2]; 1.02 in assay [3]. For the same substance, the Kd in the assay with FcγRIIaR (human) was 369 nM; with human FcγRI (human), 12.3 nM; in assay [1] it was 172 nM; in assay [2] it was 52200 nM; in assay [3], 1440 nM.
For S267D (antibody), the Fold is 8.99 with FcγRIIaR (human); 2.11 with human FcγRI (human); 0.93 in assay [1]; 1.51 in assay [2]; 4.45 in assay [3]. In addition, the dissociation constant (Kd) with FcγRIIaR (human) worked out at 95.5 nM; with human FcγRI (human), 0.156 nM; in assay [1] it was 695 nM; in assay [2] it was 127 nM; in assay [3], 330 nM.
As for L235Y (antibody), the Fold in the assay with FcγRIIaR (human) was 1.28; with human FcγRI (human), 0.00232; in assay [1], 1.35; in assay [2], 0.504; in assay [3], 1.05. The Kd was 669 nM in the assay with FcγRIIaR (human); 142 nM in the assay with human FcγRI (human); 479 nM in assay [1]; 380 nM in assay [2]; 1400 nM in assay [3].
Turning to S239E (antibody), the Fold amounted to 0.688 with FcγRIIaR (human); 1.65 with human FcγRI (human); 0.49 in assay [1]; 3.49 in assay [2]; 0.803 in assay [3]. The Kd with FcγRIIaR (human) is 1250 nM; with human FcγRI (human), 0.2 nM; in assay [1] it was 1320 nM; in assay [2] it was 54.8 nM; in assay [3] it was 1830 nM.
Consider S267E/H268E (antibody), for which the Fold with FcγRIIaR (human) was found to be 41.7; in the assay with human FcγRI (human), 3.52; in assay [1], 0.765; in assay [2], 3.15; in assay [3], 40.6. Further, the Kd with FcγRIIaR (human) worked out at 20.6 nM; in the assay with human FcγRI (human) it was 0.0935 nM; in assay [1], 845 nM; in assay [2], 60.8 nM; in assay [3] it was 36.1 nM.
On to H268D (antibody), for which the Fold in the assay with FcγRIIaR (human) amounted to 4.19; with human FcγRI (human), 2.35; in assay [1] it was 1.89; in assay [2] it was 3.08; in assay [3], 3.06. Besides, the Kd with FcγRIIaR (human) was 205 nM; in the assay with human FcγRI (human) it was 0.14 nM; in assay [1] it was 342 nM; in assay [2] it was 62.2 nM; in assay [3] it was 480 nM.
As for L234W (antibody), the Kd in the assay with human FcγRI (human) came to 10.5 nM; in assay [1], 1160 nM; in assay [2] it was 6590 nM; in assay [3], 1770 nM.
Regarding L235Y/S267E/H268E (antibody), the Fold was 48.2 with FcγRIIaR (human); 0.0103 with human FcγRI (human); 0.157 in assay [1]; 0.428 in assay [2]; 69.9 in assay [3]. Moreover, the dissociation constant Kd came to 17.8 nM in the assay with FcγRIIaR (human); 32.1 nM in the assay with human FcγRI (human); 4130 nM in assay [1]; 447 nM in assay [2]; 21 nM in assay [3].
